Test results from the supplement of paper PMC7877785.
± gives the uncertainty stated by the source.

Test: self-splicing fitness, log relative to wild type (ln ratio); higher = more splicing; Tetrahymena group I intron in knt gene, E. coli kanamycin selection, DiMSum; sequences stand for … in CUCUCU…GGAGGGAAAAGUUAUCAGGCAUGCACCUGGUAGCUAGUCUUUAAACCAAUAGAUUGCAUCGGUUUAAAAGGCAAGACCGUCAAAUUGCGGGAAAGGGGUCAACAGCCGUUCAGUACCAAGUCUCAGGGGAAACUUUGAGAUGGCCUUGCAAAGGGUAUGGUAAUAAGCUGACGGACAUGGUCCUAACCACGCAGCCAAGUCCUAAGUCAACAGAUCUUCUGUUGAUAUGGAUGCAGUUCACAGACUAAAUGUCGGUCGGGGAAGAUGUAUUCUUCUCAUAAGAUAUAGUCGGACCUCUCCUUAAUGGGAGCUAGCGGAUGAAGUGAUGCAACACUGGAGCCGCUGGGAACUAAUUUGUAUGCGAAAGUAUAUUGAUUAGUUUUGGAGUACUCGUGGUCG
Outline: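 Fitness was computed with DiMSum as the error-weighted combination of replicate fold changes, kanamycin versus none, each normalised to wild type. The library randomised all eight intron nucleotides of the P1ex region, with the intron placed in the knt kanamycin-resistance gene on pET-22b(+) in E. coli BL21(DE3). Six replicate transformations were grown overnight at 37°C or 30°C on LB agar with or without 25 μg/mL kanamycin, plus 100 μg/mL carbenicillin, 50 μM IPTG and 0.2% rhamnose. Pooled colonies were amplicon-sequenced on an Illumina HiSeq 2500.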

Sequence | self-splicing fitness (ln) (30 °C) | self-splicing fitness (ln) (37 °C)
GGGGAGCAAUAUUACGAUGG | -2.44 ± 0.45 | -2.67 ± 0.44
GGGGAGCAAUAUUACGCACG | -1.89 ± 0.17 | -1.44 ± 0.24
GGGGAGCAAUAUUACGCCGG |  | -0.928 ± 0.42
GGGGAGCAAUAUUACGCGGU | -1.99 ± 0.27 | 
GGGGAGCAAUAUUACGGACA |  | -1.12 ± 0.2
GGGGAGCAAUAUUACGUAAG | -2.56 ± 0.21 | -1.01 ± 0.24
GGGGAGCAAUAUUACGUAAU | -4.07 ± 0.47 | -0.557 ± 0.19
GGGGAGCAAUAUUACGUAGU |  | -1.53 ± 0.37
GGGGAGCAAUAUUACGUCCU | -3.89 ± 0.4 | 
GGGUAGCAAUAUUACGAAAA | -0.788 ± 0.35 | 
GGGUAGCAAUAUUACGAACC | -2.05 ± 0.39 | 
GGGUAGCAAUAUUACGAACG | -0.91 ± 0.08 | -0.292 ± 0.1
GGGUAGCAAUAUUACGAGCG | -1.3 ± 0.12 | -0.426 ± 0.12
GGGUAGCAAUAUUACGAGGA | -2.14 ± 0.22 | -2.74 ± 0.3
GGGUAGCAAUAUUACGAUGA | -0.862 ± 0.13 | -0.927 ± 0.14
GGGUAGCAAUAUUACGAUUU | -0.0881 ± 0.1 | -0.476 ± 0.099
GGGUAGCAAUAUUACGCACG | -2.15 ± 0.26 | 0.541 ± 0.23
GGGUAGCAAUAUUACGCAGG |  | -2.34 ± 0.25
GGGUAGCAAUAUUACGCCGG | -4.18 ± 0.39 | -2.03 ± 0.24
GGGUAGCAAUAUUACGCCUA | 0.113 ± 0.12 | -0.00829 ± 0.14
GGGUAGCAAUAUUACGCCUU | -1.56 ± 0.18 | -2.07 ± 0.21
GGGUAGCAAUAUUACGCGCG | -0.435 ± 0.11 | 0.558 ± 0.15
GGGUAGCAAUAUUACGCGUU | -0.304 ± 0.091 | -0.0887 ± 0.12
GGGUAGCAAUAUUACGCUCU | -3.13 ± 0.34 | 
GGGUAGCAAUAUUACGCUUG | -0.33 ± 0.1 | -0.241 ± 0.15
GGGUAGCAAUAUUACGGAAA | -1.82 ± 0.34 | 0.517 ± 0.27
GGGUAGCAAUAUUACGGAGC | -1.42 ± 0.14 | -0.425 ± 0.17

Sequence | self-splicing fitness (ln) (30 °C) | self-splicing fitness (ln) (37 °C)
GGGUAGCAAUAUUACGGUUU | -0.176 ± 0.068 | 0.138 ± 0.099
GGGUAGCAAUAUUACGUAUA | -1.41 ± 0.14 | -0.205 ± 0.15
GGGUAGCAAUAUUACGUCAA | -0.501 ± 0.13 | -0.61 ± 0.21
GGGUAGCAAUAUUACGUCUC | -0.431 ± 0.28 | 0.223 ± 0.43
GGGUAGCAAUAUUACGUGAC | -2.07 ± 0.17 | -2.27 ± 0.26
GGGUAGCAAUAUUACGUUGU | -2.46 ± 0.19 | -1.14 ± 0.17
GGGUAGCAAUAUUACGUUUG | -1.9 ± 0.14 | -1.35 ± 0.21
GGUAAGCAAUAUUACGACCG | -1.05 ± 0.16 | 0.0485 ± 0.22
GGUAAGCAAUAUUACGACGU | 0.151 ± 0.1 | 0.677 ± 0.13
GGUAAGCAAUAUUACGACUU | -0.311 ± 0.15 | 0.0617 ± 0.18
GGUAAGCAAUAUUACGAGCC |  | -2.76 ± 0.34
GGUAAGCAAUAUUACGAUCC |  | -1.74 ± 0.42
GGUAAGCAAUAUUACGAUCU | -0.636 ± 0.1 | 1.04 ± 0.13
GGUAAGCAAUAUUACGAUUU | -0.236 ± 0.1 | -0.0101 ± 0.14
GGUAAGCAAUAUUACGCACA | -0.755 ± 0.12 | 0.101 ± 0.15
GGUAAGCAAUAUUACGCCGA | -2.95 ± 0.43 | -0.926 ± 0.25
GGUAAGCAAUAUUACGCGUA | -0.32 ± 0.21 | -0.425 ± 0.15
GGUAAGCAAUAUUACGCUGU | -3.25 ± 0.29 | -1.65 ± 0.23
GGUAAGCAAUAUUACGGAUA | -3.17 ± 0.25 | -1.69 ± 0.13
GGUAAGCAAUAUUACGGCAU | -0.173 ± 0.078 | 0.827 ± 0.11
GGUAAGCAAUAUUACGGCGG | -2.55 ± 0.24 | -0.84 ± 0.18
GGUAAGCAAUAUUACGGCGU | 0.139 ± 0.13 | -0.0376 ± 0.15
GGUAAGCAAUAUUACGGGUA | -1.98 ± 0.22 | -1.71 ± 0.18
GGUAAGCAAUAUUACGUAGA | -1.56 ± 0.13 | -1.54 ± 0.21
GGUAAGCAAUAUUACGUAGC | -0.417 ± 0.41 | 
GGUAAGCAAUAUUACGUAUC | -3.54 ± 0.23 | -1.39 ± 0.45
GGUAAGCAAUAUUACGUAUG | -3.72 ± 0.29 | -2.32 ± 0.18

Sequence | self-splicing fitness (ln) (30 °C) | self-splicing fitness (ln) (37 °C)
GGUAAGCAAUAUUACGUCGU | -1 ± 0.11 | -0.732 ± 0.12
GGUAAGCAAUAUUACGUGGG | -4.06 ± 0.3 | -2.36 ± 0.25
GGUAAGCAAUAUUACGUGUA | -1.73 ± 0.078 | -0.95 ± 0.086
GGUAAGCAAUAUUACGUUCA | -0.432 ± 0.081 | 0.0273 ± 0.12
GGUCAGCAAUAUUACGAAUG | -0.0371 ± 0.078 | -0.989 ± 0.1
GGUCAGCAAUAUUACGAUAG | -1.37 ± 0.077 | 0.0315 ± 0.1
GGUCAGCAAUAUUACGCAAC | -0.639 ± 0.11 | -0.859 ± 0.17
GGUCAGCAAUAUUACGCAGA |  | -2.72 ± 0.33
GGUCAGCAAUAUUACGCAUG | -1.15 ± 0.1 | -0.079 ± 0.12
GGUCAGCAAUAUUACGCCGC | -2.96 ± 0.26 | -2.62 ± 0.36
GGUCAGCAAUAUUACGCGGU | -3.97 ± 0.39 | -2.26 ± 0.27
GGUCAGCAAUAUUACGCGUA | -0.325 ± 0.067 | -0.158 ± 0.07
GGUCAGCAAUAUUACGCUUC | -1.12 ± 0.14 | -0.693 ± 0.24
GGUCAGCAAUAUUACGGACC | -3.67 ± 0.18 | -2.08 ± 0.22
GGUCAGCAAUAUUACGGAGA |  | -1.69 ± 0.28
GGUCAGCAAUAUUACGGAGU | -0.947 ± 0.086 | 0.0968 ± 0.12
GGUCAGCAAUAUUACGGCAA | 0.415 ± 0.065 | 0.217 ± 0.083
GGUCAGCAAUAUUACGGCAU | -0.469 ± 0.073 | 0.642 ± 0.1
GGUCAGCAAUAUUACGGCUC | -2.39 ± 0.21 | -1.68 ± 0.3
GGUCAGCAAUAUUACGGCUG | -0.728 ± 0.078 | -0.439 ± 0.091
GGUCAGCAAUAUUACGGGGU | -3.37 ± 0.12 | -0.793 ± 0.086
GGUCAGCAAUAUUACGGUGG | -4.17 ± 0.28 | -1.32 ± 0.13
GGUCAGCAAUAUUACGUCGC | -0.517 ± 0.11 | 0.282 ± 0.12
GGUCAGCAAUAUUACGUCUC | 0.385 ± 0.17 | -0.113 ± 0.15
GGUCAGCAAUAUUACGUGCU | -1.5 ± 0.052 | -0.199 ± 0.067
GGUCAGCAAUAUUACGUUAA | -1.4 ± 0.099 | -0.249 ± 0.088
